Target: the molecule itself
Experiment: SEC; 50 μL of 1 mg/mL purified APC on Superdex200 HR/30, 5 mM phosphate buffer pH7, 0.5 ml/min, calibrated with BioRad standards, elution followed at 651 and 280 nm

B1: Allophycocyanin αβ heterodimer from Gracilaria chilensis (complex)
chain 1: MSIITKSIVNADAEARYLSPGELDRIKSFVLSGQRRLRIAQILTDNRELIVKQGGQQLFQKRPDVVSPGGNAYGEEMTATCLRDLDYYLRLVTYGIVAGDVTPIEEIGLVGVKEMYNSLGTPISGVAEGVRSMKNVACSLLAGEDSAEAGFYFDYTLGAMQ
chain 2: MQDAITSVINAADVQGRYLDDNSLDKLRGYFQTGELRVRASATIAANAATIIKDSVAKALLYSDITRPGGNMYTTRRYAACIRDLDYYLRYATYGMLAGDPSILDERVLNGLKETYNSLGVPIGATIQAVQAMKEVTSSLVGPDAGKEMGVYFDYICSGLS
modifications: phycocyanobilin bound to cysteine 81 | phycocyanobilin bound to cysteine 81; methyl-Asn71 (Asm71)
notes: Allophycocyanin α subunit (gene apcA), Gracilaria chilensis; 161 residues; as the chain of m1; Allophycocyanin β subunit (gene apcB), Gracilaria chilensis; as the chain of m2; The αβ heterodimer is the unit that associates with itself into the trimer (αβ)3; also called APC; heterodimer αβ; source: purified from Gracilaria chilensis (method in S4 File)
B1 was tested, and the “stoichiometry N” value was 3.

Reference: publication PMC5436742, “Structural models of the different trimers present in the core of phycobilisomes from Gracilaria chilensis based on crystal structures and sequences” (PLoS ONE, 2017)
